Experiment in all cases: cell-based or functional assay
For test [1], the target named is HIV-1 92TH021 envelope protein (Env) on pseudovirus (HIV-1).
The target in test [2] is HIV-1 MGRM-F1-016 Env (pseudovirus) (HIV-1).
The target in test [3] is HIV-1 VLGCA1 envelope glycoprotein (Env) on pseudovirus (HIV-1).
Test [4] addresses HIV-1 Env of isolate MGRM-D-004 (HIV-1).
The target in test [5] is HIV-1 Env of pseudovirus TRO.11 (Acute), clade B (HIV-1).
The target of test [6] is HIV-1 MGRM-C-028 envelope glycoprotein (Env) on pseudovirus (HIV-1).
Test [7] concerns the target HIV-1 Env of pseudovirus JRCSF, clade B (HIV-1) (UniProt P20871).
The target of test [8] is HIV-1 Env of isolate 98CN009 (HIV-1).
The target in test [9] is HIV-1 Env of isolate MGRM-D-019 (clade D) (HIV-1).
In test [10] the target is HIV-1 MGRM-A-010 envelope glycoprotein (Env) (HIV-1).
Test [11] has as its target HIV-1 Env of isolate MGRM-G-019 (subtype G) (HIV-1).
In test [12] the target is HIV-1 92RW020 envelope protein (Env) on pseudovirus (HIV-1).
The target in test [13] is HIV-1 LAVIC_18 Env (HIV-1).
The target in test [14] is HIV-1 QH0692.42 Env (pseudovirus) (HIV-1).
Test [15] has as its target HIV-1 Env of isolate MGRM-C-027 (pseudovirus) (HIV-1 isolate MGRM-C-027, subtype C).
For test [16], the target named is HIV-1 Env of isolate MGRM-F1-008 (subtype F) (HIV-1).
Test [17] concerns the target HIV-1 Env of isolate MG RM-D-002 (subtype D) (HIV-1).
Test [18] concerns the target HIV-1 Env of isolate MG RM-D-019 (subtype D) (HIV-1).
For test [19], the target named is HIV-1 Env of isolate MG RM-D-004 (subtype D) (HIV-1).
Test [20] deals with HIV-1 Env of isolate MG RM-D-001 (subtype D) (HIV-1).
Test [21] concerns the target HIV-1 Env of isolate MGRM-C-020 (pseudovirus) (HIV-1 isolate MGRM-C-020, subtype C).
Test [22] addresses HIV-1 Env of isolate MGRM-F1-023 (HIV-1).
For test [23], the target named is HIV-1 MGRM-Chronic-B-008 Env (pseudovirus) (HIV-1).
Test [24] addresses HIV-1 Env of isolate MGRM-G-028 (HIV-1).
The target of test [25] is HIV-1 Env of isolate MGRM-D-022 (HIV-1).
Test [26] has as its target HIV-1 Env of isolate SF162 (HIV-1) (UniProt P19550).
Test [27] concerns the target HIV-1 Env of isolate MGRM-Chronic-B-008 (HIV-1).
The target in test [28] is HIV-1 Env of isolate THR0.18 (HIV-1).

Sequence of PGT-144 (4970_K22) (antibody) (VH): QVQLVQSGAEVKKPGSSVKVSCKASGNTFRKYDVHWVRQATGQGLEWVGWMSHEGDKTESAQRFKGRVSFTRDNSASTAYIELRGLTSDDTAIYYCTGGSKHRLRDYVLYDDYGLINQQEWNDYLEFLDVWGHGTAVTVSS
Sequence of PGT-144 (4970_K22) (antibody) (VL): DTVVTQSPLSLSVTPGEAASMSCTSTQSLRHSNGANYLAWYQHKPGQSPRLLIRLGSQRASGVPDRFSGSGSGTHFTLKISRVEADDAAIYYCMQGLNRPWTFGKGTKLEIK
Sequence of PGT-141 (4964_G22; 4993_K13) (antibody) (VH): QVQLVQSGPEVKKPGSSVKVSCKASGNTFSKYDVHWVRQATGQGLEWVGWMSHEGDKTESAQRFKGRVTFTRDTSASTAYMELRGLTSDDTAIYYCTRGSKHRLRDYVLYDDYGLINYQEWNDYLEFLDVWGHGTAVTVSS
Sequence of PGT-141 (4964_G22; 4993_K13) (antibody) (VL): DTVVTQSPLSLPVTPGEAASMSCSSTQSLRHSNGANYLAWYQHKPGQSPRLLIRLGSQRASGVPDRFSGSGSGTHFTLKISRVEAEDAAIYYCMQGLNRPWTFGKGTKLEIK
Sequence of PGT-143 (4980_N08) (antibody) (VH): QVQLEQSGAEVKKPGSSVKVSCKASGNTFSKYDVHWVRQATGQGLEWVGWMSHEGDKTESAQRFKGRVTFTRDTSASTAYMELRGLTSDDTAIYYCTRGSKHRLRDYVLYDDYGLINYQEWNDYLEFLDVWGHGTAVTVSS
Sequence of PGT-143 (4980_N08) (antibody) (VL): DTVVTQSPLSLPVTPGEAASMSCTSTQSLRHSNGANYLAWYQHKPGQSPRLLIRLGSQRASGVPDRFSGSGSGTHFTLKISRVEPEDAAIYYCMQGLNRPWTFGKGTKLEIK
Sequence of PGT-142 (4995_E20) (antibody) (VH): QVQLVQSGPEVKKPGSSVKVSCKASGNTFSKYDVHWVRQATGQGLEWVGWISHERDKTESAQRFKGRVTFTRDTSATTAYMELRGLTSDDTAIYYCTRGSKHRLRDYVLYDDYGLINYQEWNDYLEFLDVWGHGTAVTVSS

Regarding 1496_C09 (PG9) (TCN-109) (antibody), the neutralization IC50 in test [1] came to 0.111 µg/mL; in [11], 14.6 µg/mL; in [12], 0.0637 µg/mL. In addition, the IC50 (µg/ml), pseudovirus neutralization in test [2] came to 0.58 µg/mL; in test [3], 0.07 µg/mL; in test [5], 5.43 µg/mL; in test [7] it was 0.003 µg/mL; in [9], 0.03 µg/mL. This substance gave an IC50 (µg/mL), pseudovirus neutralization in test [4] of 0.06 µg/mL. The same substance showed an IC50 (ug/ml), neutralizing activity in test [6] of 0.121 µg/mL. Further, the IC50 neutralization amounted to 0.121 µg/mL in test [6] and 0.0375 µg/mL in test [10]. The substance also had an IC80, neutralization in test [6] of 0.645 µg/mL. In test [6], this substance showed an IC90, neutralization of 1.65 µg/mL. In test [6], this substance came in with an IC95, neutralization of 3.71 µg/mL. In test [8], this substance registered an IC50, pseudovirus neutralization of 0.371 µg/mL. For the same substance, the IC50 in test [13] amounted to 0.1 µg/mL.

For 4838_L06 (PGT-121) (antibody), the IC50, pseudovirus neutralization came out at 0.823 µg/mL in test [14] and 0.007 µg/mL in test [23]. Besides, the figures for the IC50 (µg/mL) neutralization in test [15] and in [21] were 0.011 µg/mL and > 50 µg/mL, respectively. Moreover, the IC50 (µg/mL), pseudovirus neutralization in [16] is > 50 µg/mL; in [17] it was 0.006 µg/mL; in [18] it was > 50 µg/mL; in [19] it was > 50 µg/mL; in test [20], 0.615 µg/mL. The same substance registered an IC50 in test [22] of 0.097 µg/mL.

Regarding 4877_D15 (PGT-122) (antibody), the IC50, pseudovirus neutralization in test [14] was 0.493 µg/mL; in [24] it was 0.01 µg/mL; in test [23], 0.017 µg/mL. Moreover, the IC50 (µg/mL) neutralization is 0.039 µg/mL in test [15] and 14 µg/mL in [21]. Further, the IC50 (µg/mL), pseudovirus neutralization in test [16] is > 50 µg/mL; in test [17] it was 0.005 µg/mL; in [18], > 50 µg/mL; in [19], > 50 µg/mL; in test [20], 1.13 µg/mL. This substance also showed an IC50 (ug/ml), neutralizing activity in [6] of 2.06 µg/mL. This substance also had a 50% inhibitory concentration (IC50) in test [22] of 0.154 µg/mL.

In [10], PGT-121 (antibody) returned an IC50 neutralization of 2.61 µg/mL.

PGT-122 (antibody): the IC50 neutralization in test [10] amounted to 1.68 µg/mL.

On to PGT-141 (4964_G22; 4993_K13) (antibody), for which the neutralization IC50 in test [11] was determined as 20.3 µg/mL.

On to PGT-142 (4995_E20) (antibody), for which the neutralization IC50 in test [11] was 5.95 µg/mL.

In turn, PGT-143 (4980_N08) (antibody) showed a neutralization IC50 in test [11] of 4.77 µg/mL.

PGT-144 (4970_K22) (antibody): the neutralization IC50 in [11] is > 50 µg/mL.

With PGV04 (antibody), the IC50 (µg/mL), pseudovirus neutralization in [25] was > 50 µg/mL; in [4], 43.2 µg/mL. The IC50, pseudovirus neutralization in test [8] was 0.0125 µg/mL. Also, the neutralization IC50 in test [11] was 0.027 µg/mL.

Consider VRC01 (antibody), for which the neutralization IC50 stood at 0.421 µg/mL in test [26], 0.06 µg/mL in [11] and 2.46 µg/mL in test [28]. In addition, the IC50, pseudovirus neutralization in test [25] is > 50 µg/mL; in [22] it was 0.392 µg/mL. For the same substance, the half-inhibitory concentration (IC50) in [27] was found to be 0.155 µg/mL.

(Values after patent US20200024330A1.)
